Test results from article PMC10521239 (Protein Science : A Publication of the Protein Society, 2023).

Molecular target: HPC4 tagged human fIX without the gamma-carboxyglutamic (GLA) domain, wild type (Homo sapiens)
Assay: ELISA

Sequence of HPC4 tagged human fIX without the gamma-carboxyglutamic (GLA) domain, wild type (Homo sapiens) (P00740 93-461): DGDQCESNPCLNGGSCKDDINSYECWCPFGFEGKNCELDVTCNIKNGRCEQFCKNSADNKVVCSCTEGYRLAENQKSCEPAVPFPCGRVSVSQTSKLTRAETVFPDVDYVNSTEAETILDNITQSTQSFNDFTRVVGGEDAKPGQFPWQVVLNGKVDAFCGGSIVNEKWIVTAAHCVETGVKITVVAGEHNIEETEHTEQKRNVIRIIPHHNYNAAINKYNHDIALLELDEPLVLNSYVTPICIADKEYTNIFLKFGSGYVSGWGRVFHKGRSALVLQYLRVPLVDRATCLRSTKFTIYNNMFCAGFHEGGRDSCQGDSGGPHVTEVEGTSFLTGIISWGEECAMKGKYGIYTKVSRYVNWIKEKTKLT

- binding result: binds
B1: anti-fIXa NN-8895 full-length mAb (antibody, V domains shown)
VH: EVQLVESGGGLVQPGRSLRLSCAASGFIFDDYAMHWVRQVPGKGLEWVSGISWNSDNIGYVDSVKGRFTISRDNAKNSLYLQMNSLRIEDTALYYCAKAFGSGSYYNGFDYWGQGALVTVSS
VL: DIQMTQSPSTLSASAGDRVTISCRASQSISSWLAWYQQKPGKAPKLLIYKASSLESGVPSRFSGSGSGTEFTLTISSLQPDDFATYYCQEYNSYIRTFGQGTKVEIK
